According to paper PMC8693978:
Blank lines part the entries; values can stand above or below the binder they belong to.

Legend:
[1] = target: EGFP-ARHGAP4 Rho-GAP deletion mutant (human); assay: co-IP
[2] = target: EGFP-ARHGAP4 SH3 deletion mutant (human); assay: co-IP

percent of the co-precipitation by full-length ARHGAP4 [1]: 55% | percent of the co-precipitation by full-length ARHGAP4 [2]: 65%
B1: SEPT2 (natural protein)
chain: MSKQQPTQFINPETPGYVGFANLPNQVHRKSVKKGFEFTLMVVGESGLGKSTLINSLFLTDLYPERVIPGAAEKIERTVQIEASTVEIEERGVKLRLTVVDTPGYGDAINCRDCFKTIISYIDEQFERYLHDESGLNRRHIIDNRVHCCFYFISPFGHGLKPLDVAFMKAIHNKVNIVPVIAKADTLTLKERERLKKRILDEIEEHNIKIYHLPDAESDEDEDFKEQTRLLKASIPFSVVGSNQLIEAKGKKVRGRLYPWGVVEVENPEHNDFLKLRTMLITHMQDLQEVTQDLHYENFRSERLKRGGRKVENEDMNKDQILLEKEAELRRMQEMIARMQAQMQMQMQGGDGDGGALGHHV

percent of the co-precipitation by full-length ARHGAP4 [1]: 55% | percent of the co-precipitation by full-length ARHGAP4 [2]: 65%
B2: SEPT9 (natural protein)
chain: MKKSYSGGTRTSSGRLRRLGDSSGPALKRSFEVEEVETPNSTPPRRVQTPLLRATVASSTQKFQDLGVKNSEPSARHVDSLSQRSPKASLRRVELSGPKAAEPVSRRTELSIDISSKQVENAGAIGPSRFGLKRAEVLGHKTPEPAPRRTEITIVKPQESAHRRMEPPASKVPEVPTAPATDAAPKRVEIQMPKPAEAPTAPSPAQTLENSEPAPVSQLQSRLEPKPQPPVAEATPRSQEATEAAPSCVGDMADTPRDAGLKQAPASRNEKAPVDFGYVGIDSILEQMRRKAMKQGFEFNIMVVGQSGLGKSTLINTLFKSKISRKSVQPTSEERIPKTIEIKSITHDIEEKGVRMKLTVIDTPGFGDHINNENCWQPIMKFINDQYEKYLQEEVNINRKKRIPDTRVHCCLYFIPATGHSLRPLDIEFMKRLSKVVNIVPVIAKADTLTLEERVHFKQRITADLLSNGIDVYPQKEFDEDSEDRLVNEKFREMIPFAVVGSDHEYQVNGKRILGRKTKWGTIEVENTTHCEFAYLRDLLIRTHMQNIKDITSSIHFEAYRVKRLNEGSSAMANGMEEKEPEAPEM
